Measurements: patent US20140249468A1 (UNITED STATES OF AMERICA AS REPRESENTED BY THE SECRETARY …, published 2014)
Square brackets hold non-standard residues; d marks the D form. Ends that are not written are not given here.

T1: APMA-activated recombinant human MMP-2 (human, UniProt P08253 110-660, limits assumed)
T1 sequence (looked up): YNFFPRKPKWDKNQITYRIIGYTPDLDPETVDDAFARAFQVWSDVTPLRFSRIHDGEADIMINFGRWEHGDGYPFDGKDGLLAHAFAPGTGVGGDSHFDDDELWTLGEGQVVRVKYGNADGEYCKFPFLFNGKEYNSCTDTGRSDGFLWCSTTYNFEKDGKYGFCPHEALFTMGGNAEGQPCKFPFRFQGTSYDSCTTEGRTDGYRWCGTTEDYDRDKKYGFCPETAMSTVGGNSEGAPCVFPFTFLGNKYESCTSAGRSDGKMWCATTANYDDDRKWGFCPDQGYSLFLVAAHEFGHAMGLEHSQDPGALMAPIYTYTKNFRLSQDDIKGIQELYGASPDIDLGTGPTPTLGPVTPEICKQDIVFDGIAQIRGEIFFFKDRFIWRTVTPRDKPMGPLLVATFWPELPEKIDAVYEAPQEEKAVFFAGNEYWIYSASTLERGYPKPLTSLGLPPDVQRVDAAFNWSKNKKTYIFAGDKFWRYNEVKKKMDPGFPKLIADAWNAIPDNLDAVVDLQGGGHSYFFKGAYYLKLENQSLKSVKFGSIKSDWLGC


Key:
[1] = target: T1, APMA-activated recombinant human MMP-2; assay: cell-based or functional assay
[2] = target: T2, ανβ3 integrin receptor on U87MG human glioma cells (human, UniProt P06756 31-1048; P05106 27-788); assay: competitive cell-binding assay on U87MG cells, displacement of 125I-echistatin
T2 construct: whole, on cells; Endogenous receptor on U87MG cells; also called ανβ3 receptor
T2 sequence (P06756 31-1048, chain 1 of 2): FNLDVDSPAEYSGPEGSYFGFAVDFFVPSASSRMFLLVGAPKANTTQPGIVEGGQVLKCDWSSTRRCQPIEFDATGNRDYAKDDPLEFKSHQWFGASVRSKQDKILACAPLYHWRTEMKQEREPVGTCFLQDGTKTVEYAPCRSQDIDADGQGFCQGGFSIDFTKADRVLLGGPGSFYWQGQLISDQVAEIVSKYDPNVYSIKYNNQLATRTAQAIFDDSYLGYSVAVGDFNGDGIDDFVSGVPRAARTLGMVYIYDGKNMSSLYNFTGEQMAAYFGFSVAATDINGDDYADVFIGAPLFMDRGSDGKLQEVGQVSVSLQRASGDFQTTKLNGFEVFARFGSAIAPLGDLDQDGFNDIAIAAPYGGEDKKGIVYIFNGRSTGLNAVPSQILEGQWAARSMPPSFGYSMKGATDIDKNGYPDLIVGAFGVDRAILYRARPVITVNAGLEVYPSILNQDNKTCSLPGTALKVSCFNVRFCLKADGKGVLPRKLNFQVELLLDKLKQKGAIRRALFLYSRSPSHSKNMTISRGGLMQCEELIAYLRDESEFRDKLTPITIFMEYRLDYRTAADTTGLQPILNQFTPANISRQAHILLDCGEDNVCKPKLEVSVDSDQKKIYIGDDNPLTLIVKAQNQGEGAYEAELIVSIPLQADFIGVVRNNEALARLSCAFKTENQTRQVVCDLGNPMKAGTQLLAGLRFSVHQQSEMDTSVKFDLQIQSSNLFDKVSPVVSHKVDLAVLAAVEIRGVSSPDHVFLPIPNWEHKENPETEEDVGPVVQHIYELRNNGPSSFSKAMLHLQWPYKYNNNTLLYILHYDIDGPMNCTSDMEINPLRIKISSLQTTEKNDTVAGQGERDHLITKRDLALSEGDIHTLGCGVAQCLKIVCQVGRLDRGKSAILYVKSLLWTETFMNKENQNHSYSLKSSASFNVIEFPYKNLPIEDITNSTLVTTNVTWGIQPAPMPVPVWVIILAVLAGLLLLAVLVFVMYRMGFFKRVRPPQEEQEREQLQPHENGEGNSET
T2 sequence (P05106 27-788, chain 2 of 2): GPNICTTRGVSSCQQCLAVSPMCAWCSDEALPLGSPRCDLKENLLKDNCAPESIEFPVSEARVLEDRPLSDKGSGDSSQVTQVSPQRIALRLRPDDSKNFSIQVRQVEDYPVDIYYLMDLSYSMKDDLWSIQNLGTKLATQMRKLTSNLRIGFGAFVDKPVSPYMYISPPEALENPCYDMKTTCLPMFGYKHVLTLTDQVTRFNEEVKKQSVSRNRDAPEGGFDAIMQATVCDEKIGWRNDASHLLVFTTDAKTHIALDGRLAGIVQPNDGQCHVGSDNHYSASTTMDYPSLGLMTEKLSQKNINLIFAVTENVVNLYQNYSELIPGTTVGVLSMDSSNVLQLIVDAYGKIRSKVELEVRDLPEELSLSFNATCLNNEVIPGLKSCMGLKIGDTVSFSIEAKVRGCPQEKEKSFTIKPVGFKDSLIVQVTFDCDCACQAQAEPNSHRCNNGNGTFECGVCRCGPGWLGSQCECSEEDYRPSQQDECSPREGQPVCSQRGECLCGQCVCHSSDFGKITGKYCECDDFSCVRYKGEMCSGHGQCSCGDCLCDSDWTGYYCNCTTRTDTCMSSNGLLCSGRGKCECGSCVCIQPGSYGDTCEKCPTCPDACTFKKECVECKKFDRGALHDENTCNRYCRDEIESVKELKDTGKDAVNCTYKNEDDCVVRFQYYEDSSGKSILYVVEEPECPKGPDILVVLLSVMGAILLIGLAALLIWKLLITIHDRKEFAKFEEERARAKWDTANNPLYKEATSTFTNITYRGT
Protocol: Briefly, the U87MG cell line was cultured in DMEM medium containing 10% (v/v) fetal bovine serum supplemented with penicillin (100 μg/ml), streptomycin (100 μg/ml), non-essential amino acids (100 mM) and sodium pyruvate (1 mM) at 37° C. with 5% CO₂. […] After incubation, the plate was washed three times with PBS containing 0.1% BSA, and the radioactivity was measured by γ-counting. The IC₅₀ values were calculated by nonlinear regression analysis.

Row | recovery of the NIR fluorescence signal [1] | IC50 [2] | Binder
1 | > 20 fold | – | compound 4 (MMP-P-RGD) (not fully specified (some residues); also: chain 1 C-terminal carboxyl conjugated to chain 2, c(RGDyK), linkage site not given here, head-to-tail to a chain's N/C-terminus) peptide 1: {Cy5.5}-GPLGVRGK(BHQ‑3)GG peptide 2: RGDYK
2 | – | 456 nM | cyclo(RGD[dY]K(CW800)) (Made by conjugating CW800 NHS ester to c(RGDyK); also called CW800-labelled c(RGDyK)) [compound 7]
